The text below walks through data of IntAct's records for PubMed 28559451.

To fix the notation:
B1: UL16-binding protein 6 (Homo sapiens), Q5VY80 (parent)
chain: MAAAAIPALLLCLPLLFLLFGWSRARRDDPHSLCYDITVIPKFRPGPRWCAVQGQVDEKTFLHYDCGNKTVTPVSPLGKKLNVTMAWKAQNPVLREVVDILTEQLLDIQLENYTPKEPLTLQARMSCEQKAEGHSSGSWQFSIDGQTFLLFDSEKRMWTTVHPGARKMKEKWENDKDVAMSFHYISMGDCIGWLEDFLMGMDSTLEPSAGAPLAMSSGTTQLRATATTLILCCLLIILPCFILPGI

This experiment covers variants of B1. The settings on record: with nkg2d_human KLRK1, P26718.
Chain of nkg2d_human KLRK1, P26718 (P26718 whole entry): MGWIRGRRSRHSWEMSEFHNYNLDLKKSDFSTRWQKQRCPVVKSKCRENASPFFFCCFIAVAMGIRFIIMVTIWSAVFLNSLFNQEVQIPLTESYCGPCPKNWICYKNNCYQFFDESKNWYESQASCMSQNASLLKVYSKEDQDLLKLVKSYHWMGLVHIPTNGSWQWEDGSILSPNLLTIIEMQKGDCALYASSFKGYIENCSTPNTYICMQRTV
Regarding L106R, the “effect of a mutation on the interaction” value was “decreasing interaction strength”.
